Entries after “also recorded” stand apart in the source; their conditions may differ.
B1: CBH protein: Protein encoded by the YP_001179883 gene of Caldicellulosiruptor saccharolyticus, domains GH10, CBM3, GH5 (SEQ ID NO:2) (protein, listed as Caldicellulosiruptor saccharolyticus)
chain: MKRNLFRIVSRVVLIAFIASISLVGAMSYFPVETQAAPDWSIPSLCESYKDDFMIGVAIPARCLSNDTDKRMVLKHFNSITAENEMKPESLLAGQTSTGLSYRFSTADAFVDFASTNKIGIRGHTLVWHNQTPDWFFKDSNGQRLSKDALLARLKQYIYDVVGRYKGKVYAWDVVNEAIDENQPDSYRRSTWYEICGPEYIEKAFIWAHEADPNAKLFYNDYNTEISKKRDFIYNMVKNLKSKGIPIHGIGMQCHINVNWPSVSEIENSIKLFSSIPGIEIHITELDMSLYNYGSSENYSTPPQDLLQKQSQKYKEIFTMLKKYKNVVKSVTFWGLKDDYSWLRSFYGKNDWPLLFFEDYSAKPAYWAVLEASGVTTSSPTPTPTPTVTVTPTPTPTPTPTVTATPTPTPTPVSTPATGGQIKVLYANKETNSTTNTIRPWLKVVNSGSSSIDLSRVTIRYWYTVDGERAQSAVSDWAQIGASNVTFKFVKLSSSVSGADYYLEIGFKSGAGQLQPGKDTGEIQIRFNKSDWSNYNQGNDWSWLQSMTSYGENEKVTAYIDGVLVWGQEPSGATPAPTMTVAPTATPTPTLSPTVTPTPAPTQTAIPTPTLTPNPTPTSSIPDDTNDDWLYVSGNKIVDKDGRPVWLTGINWFGYNTGTNVFDGVWSCNLKDTLAEIANRGFNLLRVPISAELILNWSQGIYPKPNINYYVNPELEGKNSLEVFDIVVQTCKEVGLKIMLDIHSIKTDAMGHIYPVWYDEKFTPEDFYKACEWITNRYKNDDTIIAFDLKNEPHGKPWQDTTFAKWDNSTDINNWKYAAETCAKRILNINFNLLIVIEGIEAYPKDDVTWTSKSSSDYYSTWWGGNLRGVRKYPINLGKYQNKVVYSPHDYGPSVYQQPWFYPGFTKESLLQDCWRPNWAYIMEENIAPLLIGEWGGHLDGADNEKWMKYLRDYIIENHIHHTFWCFNANSGDTGGLVGYDFTTWDEKKYSFLKPALWQDSQGRFVGLDHKRPLGTNGKNINITTYYNNNEPEPVPASK
B2: Caldicellulosiruptor saccharolyticus (Csac) GH5 cellobiohydrolase domain, construct C (CsacF7-4), amino acids 507-1039 of Csac CBH, SEQ ID NO:3 … (protein)
chain: MFKSGAGQLQPGKDTGEIQIRFNKSDWSNYNQGNDWSWLQSMTSYGENEKVTAYIDGVLVWGQEPSGATPAPTMTVAPTATPTPTLSPTVTPTPAPTQTAIPTPTLTPNPTPTSSIPDDTNDDWLYVSGNKIVDKDGRPVWLTGINWFGYNTGTNVFDGVWSCNLKDTLAEIANRGFNLLRVPISAELILNWSQGIYPKPNINYYVNPELEGKNSLEVFDIVVQTCKEVGLKIMLDIHSIKTDAMGHIYPVWYDEKFTPEDFYKACEWITNRYKNDDTIIAFDLKNEPHGKPWQDTTFAKWDNSTDINNWKYAAETCAKRILNINPNLLIVIEGLEAYPKDDVTWTSKSSSDYYSTWWGGNLRGVRKYPINLGKYQNKVVYSPHDYGPSVYQQPWFYPGFTKESLLQDCWRPNWAYLMEENIAPLLIGEWGGHLDGADNEKWMKYLRDYIIENHIHHTFWCFNANSGDTGGLVGYDFTTWDEKKYSFLKPALWQDSQGRFVGLDHKRPLGTNGKNINITTYYNNNEPEPVPASK
notes: C-terminal V5 and His6 tags (pDEST42); E. coli BL21(DE3) Star; purified
B3: Caldicellulosiruptor saccharolyticus (Csac) CBM3-GH5 cellobiohydrolase, construct E (CsacF7-6), amino acids 374-1039 of Csac CBH, SEQ ID NO:4 … (protein)
chain: MGVTTSSPTPTPTPTVTVTPTPTPTPTPTVTATPTPTPTPVSTPATGGQIKVLYANKETNSTTNTIRPWLKVVNSGSSSIDLSRVTIRYWYTVDGERAQSAVSDWAQIGASNVTFKFVKLSSSVSGADYYLEIGFKSGAGQLQPGKDTGEIQIRFNKSDWSNYNQGNDWSWLQSMTSYGENEKVTAYIDGVLVWGQEPSGATPAPTMTVAPTATPTPTLSPTVTPTPAPTQTAIPTPTLTPNPTPTSSIPDDTNDDWLYVSGNKIVDKDGRPVWLTGINWFGYNTGTNVFDGVWSCNLKDTLAEIANRGFNLLRVPISAELILNWSQGIYPKPNINYYVNPELEGKNSLEVFDIVVQTCKEVGLKIMLDIHSIKTDAMGHIYPVWYDEKFTPEDFYKACEWITNRYKNDDTIIAFDLKNEPHGKPWQDTTFAKWDNSTDINNWKYAAETCAKRILNINPNLLIVIEGLEAYPKDDVTWTSKSSSDYVSTWWGGNLRGVRKYPINLGKYQNKVVYSPHDYGPSVYQQPWFYPGFTKELLQDCWRPNWAYLMEENIAPLLIGEWGGHLDGADNEKWMKYLRDYIIENHIHHTFWCFNANSGDTGGLVGYDFTTWDEKKYSFLKPALWQDSQGRFVGLDHKRPLGTNGKNINITTYYNNNEPEPVPASK
notes: as for B2

Experiments:
GH5 = GH5 (Caldicellulosiruptor saccharolyticus, UniProt A4XIF7); assay: Product inhibition by cellobiose of pNPC hydrolysis; type: biochemical; conditions: 5 mM pNPC, optimal condition; read-out: IC50 of cellobiose on CBH activity
GH5, sequence (A4XIF7 entry or part of it): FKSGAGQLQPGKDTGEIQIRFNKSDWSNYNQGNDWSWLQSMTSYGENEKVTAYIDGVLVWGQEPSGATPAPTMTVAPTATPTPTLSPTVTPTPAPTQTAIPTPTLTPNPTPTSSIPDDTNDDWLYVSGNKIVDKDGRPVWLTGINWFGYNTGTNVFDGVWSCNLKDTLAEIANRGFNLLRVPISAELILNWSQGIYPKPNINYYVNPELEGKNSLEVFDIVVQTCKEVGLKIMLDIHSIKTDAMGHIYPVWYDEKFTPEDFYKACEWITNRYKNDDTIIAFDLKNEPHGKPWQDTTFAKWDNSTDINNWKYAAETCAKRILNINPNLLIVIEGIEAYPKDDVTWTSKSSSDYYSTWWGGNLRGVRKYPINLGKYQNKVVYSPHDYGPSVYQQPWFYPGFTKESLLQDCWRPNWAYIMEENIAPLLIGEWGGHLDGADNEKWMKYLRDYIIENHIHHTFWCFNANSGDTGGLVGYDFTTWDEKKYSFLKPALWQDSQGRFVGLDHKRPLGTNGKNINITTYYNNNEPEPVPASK
Procedure: (§1) To examine the catalytic activity of GH5 in detail, the hydrolysis of nitrophenol from 4-nitrophenyl-β-D-cellobioside (pNPC) and 4-nitrophenyl-β-D-glucopyranoside (pNPG) are measured. Under the optimum reaction condition that is previously found (80° C. and pH 5.5), pNPC was hydrolyzed by both CBM3-GH5 and GH5. […] The product inhibition by cellobiose is examined by adding unlabeled cellobiose into reaction mixtures containing 5 mM of pNPC. The IC50 inhibition constant for cellobiose on the catalytic activity of GH5 is found at c.a. 30 mM. The kinetics of pNPC hydrolysis by CBM3-GH5 and GH5 are compared to see whether the CBM3 domain can influence the catalytic activity of the GH5 domain on a soluble substrate.
(§2) GH5 and CBM3-GH5 (constructs C and E, respectively) are tested to determine the influence of product and ionic strength on CBH activity.

[1] = Enzymatic activity on CMC under different pH and temperature, DNS assay; type: biochemical
Procedure: To determine the optimum conditions for the enzymatic activity of GH5 on CMC under different pH and temperature ranges was measured by DNS assay. The maximum activity is observed at 80° C. and at pH between 4.7 and 5.5; the optimum conditions of the GH5 activity on CMC is at a higher temperature and at a lower pH than the optimum growth conditions of C. sac (70° C., at neutral pH). In addition, Csac GH5 is also active on 4-nitrophenyl β-D-cellobioside, but not active on 4-nitrophenyl β-D-glucopyranoside (up to 1 hr incubation). Therefore, GH5 is a cellobiohydrolase/exoglucanase that produces cellobiose.

[2] = Effect of IL concentration on CBH activity, CMC substrate, DNS; type: biochemical; conditions: EMIM acetate
Procedure: GH5 and CBM3-GH5 (constructs C and E, respectively) are tested to determine the effect of IL concentration on the CBH activity of GH5. Carboxymethyl cellulose (CMC) is used as the substrate for the enzymatic reaction, and the amount of released products containing reducing ends is measured by DNS. The CBH activity remains fairly highly from 0% to more than 20% EMIM acetate. From 25% EMIM acetate the CBH activity starts to decrease and the CBH activity diminished at about 60% EMIM acetate.

[3] = CBH (cellobiohydrolase or exoglucanase) activity of constructs; type: biochemical
Text: (§3) CBH is a modular cellulolytic gene from a hyperthermophilic and anaerobic bacterium Caldicellulosiruptor saccharolyticus (C. Sac), which contains the glycoside hydrolase family 10 (GH10), carbohydrate binding module family 3 (CBM3), and glycoside hydrolase family 5 (GH5) domains in a single open reading frame (ORF). We have expressed, purified, and characterized the function of the recombinant GH5 with and without CBM3 domain. The nucleotide sequence of the ORF is codon-optimized and then synthesized for protein expression in E. coli. The translated products contain c-terminal V5 epitope and His (×6) tags from the pDEST42 vector sequence. The recombinant proteins CBM3-GH5 and GH5 are expressed in BL21(DE3)Star E. coli and purified by affinity (HisTrap FF) and ion-exchange (HiTrap Q) chromatography methods. The average yields are 4 mg and 3 mg per liter, respectively.

[4] = CMCase activity of constructs; type: biochemical
Text: as §3

[5] = Hydrolysis of pNPG (β-glucosidase activity); type: biochemical; conditions: 80° C. and pH 5.5, up to one hour
Procedure: as §1

[6] = Hydrolysis of pNPC, kinetics by Eadie-Hofstee plots; type: biochemical; conditions: 80° C. and pH 5.5
Procedure: as §1

[7] = Enzyme digestion of solid substrates, products by HPAEC; type: biochemical; conditions: 30 mg substrate, 10 μg protein, 80° C., pH 5.5, 17 hours
Procedure: The effect of CBM3 on the cellobiohydrolase activity on solid substrates by GH5 is tested on Avicel and corn stover. These solid substrates are pretreated with the ionic liquid 1-ethyl-3-methylmidazolium acetate ([C2mim][OAc]). […] Enzyme digestion is performed by mixing 30 mg of substrate and 10 μg of protein in 0.5 mL volume and incubating at 80° C. and pH 5.5 for 17 hours. GH5 and CBM3-GH5 are able to produce more cellobiose and glucose from pre-treated Avicel than untreated Avicel.

[8] = substrate: O=[N+]([O-])c1ccc(O[C@@H]2O[C@H](CO)[C@@H](O[C@@H]3O[C@H](CO)[C@@H](O)[C@H](O)[C@H]3O)[C@H](O)[C@H]2O)cc1; assay: hydrolysis kinetics of 4-nitrophenyl-β-D-cellobioside (pNPC) by GH5 (Eadie-Hofstee plots); type: biochemical, Caldicellulosiruptor saccharolyticus
Text: as §3, §1

[9] = Influence of ionic strength (NaCl) on CBH activity; type: biochemical; conditions: 2.3 M NaCl
Procedure: as §2

[10] = substrate: O=[N+]([O-])c1ccc(O[C@@H]2O[C@H](CO)[C@@H](O[C@@H]3O[C@H](CO)[C@@H](O)[C@H](O)[C@H]3O)[C@H](O)[C@H]2O)cc1; assay: hydrolysis kinetics of 4-nitrophenyl-β-D-cellobioside (pNPC) by CBM3-GH5 (Eadie-Hofstee plots); type: biochemical, Caldicellulosiruptor saccharolyticus; conditions: other: pNPC, 80° C., pH 5.5, Eadie-Hofstee plot
Text: as §3, §1

[11] = other: 80° C., 50 mM MES, pH 5.5 (general description of the enzyme)
[12] = other: pNPC, 80° C., pH 5.5, Eadie-Hofstee plot

Row | Molecule | IC50 (GH5) [mM] | Temperature of maximum (optimal) activity [1] | IL concentration up to which the enzyme is active/tolerant [2] | CBH activity (cellobiohydrolase or exoglucanase) [3] | pH of maximum (optimal) activity [1] | CMCase activity [4] | Activity on pNPG [5] | IL concentration at which CBH activity diminished [2] | IL concentration from which CBH activity starts to decrease [2] [%] | Activity on pNPC [6] | Sugar released from solid substrates [7] | Km [8, 11] [µM] | Vmax [8, 11] [µmol/min/mg] | Km [8, 12] [µM] | Vmax [8, 12] [µmol/min/mg] | kcat [8, 12] [s⁻¹] | Residual CBH activity [9] | Km [10] [µM] | Vmax [10] [µmol/min/mg] | kcat [10] [s⁻¹]
1 | O=C[C@H](O)[C@@H](O)[C@H](O[C@@H]1O[C@H](CO)[C@@H](O)[C@H](O)[C@H]1O)[C@H](O)CO [cellobiose] | ~30 | – | – | – | – | – | – | – | – | – | – | – | – | – | – | – | – | – | – | –
2 | B1 | – | about 80 °C | up to 50% | – | – | – | – | – | – | – | – | – | – | – | – | – | – | – | – | –
3 | B2 | – | 80 °C | up to 50% | Yes | 4.7-5.5 | Yes | not active; also recorded: not hydrolyzed | about 60% | 25 | active; also recorded: hydrolyzed | can produce both cellobiose and glucose; also recorded: cellobiose is the predominant sugar released | 2200 | 0.71 | 2400 | 0.62 | 0.817 | – | – | – | –
4 | B3 | – | – | – | Yes | – | Yes | not hydrolyzed | about 60% | 25 | hydrolyzed | cellobiose is the predominant sugar released; also recorded: produced more cellobiose than GH5 | – | – | – | – | – | at least 80% | 2200 | 0.71 | 0.767

— patent US9624482B2, “Thermophilic cellobiohydrolase” (Sandia Corporation, priority 2009, dated 2017)
